Measured values reported in the supplement of paper PMC10724198.
± gives the standard deviation of the averaged measurements.

Tested on: Saccharomyces cerevisiae
Assay: protein stability index of tFT-peptide fusion (C-terminal peptide) (PSI (0-1 scale)); higher = more stable (slower turnover)
Conditions: temperature: 30 C
Method: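 MPS profiling in S. cerevisiae of the yeast C-terminome library: the last 12 aa of each annotated ORF are fused to the C-terminus of a sfGFP-mCherry timer, after a GGGS linker. Cells are FACS-sorted into 8 mCherry/sfGFP bins and deep-sequenced. PSI runs from 0 (unstable) to 1 (stable); wild type and das1Δ backgrounds, two technical replicates each.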

[1] = genetic background: das1 deletion

| Sequence | protein stability index [1] | protein stability index (genetic background: wild type) |
| --- | --- | --- |
| AGTENDEEEFNI [PSF2 C-terminal 12 aa] | 0.674 ± 0.018 | 0.672 ± 0.044 |
| AINYIGNIRRNE [ACO2 C-terminal 12 aa] | 0.7288 ± 0.0043 | 0.727 ± 0.048 |
| AIRTRKFDNNKR [RED1 C-terminal 12 aa] | 0.716 ± 0.046 | 0.6648 ± 0.0027 |
| AIWIFYIDFRVH [YCL021W-A C-terminal 12 aa] | 0.227 ± 0.024 | 0.201 ± 0.011 |
| AKDAFTSTLPTH [GFD2 C-terminal 12 aa] | 0.7 ± 0.017 | 0.716 ± 0.021 |
| AKDYLLDLAGQA [YBR085C-A C-terminal 12 aa] | 0.71316 ± 0.00065 | 0.659 ± 0.012 |
| AKLSEGTSFRRK [RPS27A C-terminal 12 aa] | 0.6952 ± 0.0023 | 0.681 ± 0.037 |
| AKNARPSKKRKF [DBP10 C-terminal 12 aa] | 0.752 ± 0.025 | 0.6782 ± 0.0047 |
| AKPKYEKILIDN [RTC2 C-terminal 12 aa] | 0.703 ± 0.011 | 0.666 ± 0.035 |
| AKRDILPSPVSV [LPP1 C-terminal 12 aa] | 0.6165 ± 0.005 | 0.646 ± 0.04 |
| ALKHGEKAFNIN [NEM1 C-terminal 12 aa] | 0.678 ± 0.017 | 0.6766 ± 0.0023 |
| ALLDGFVTAAGY [DAK2 C-terminal 12 aa] | 0.745 ± 0.027 | 0.728 ± 0.016 |
| AMLKPSSKEGSP [COQ10 C-terminal 12 aa] | 0.6955 ± 0.0028 | 0.718 ± 0.0063 |
| ANESLEEDLNLD [YBR137W C-terminal 12 aa] | 0.698 ± 0.031 | 0.661 ± 0.025 |
| ANKNDAISKKVE [ATG23 C-terminal 12 aa] | 0.69 ± 0.017 | 0.763 ± 0.077 |
| AQQNYRLWLSSV [ATG41 C-terminal 12 aa] | 0.682 ± 0.016 | 0.3264 ± 0.0023 |
| ARLLRFWDHIIR [SHU1 C-terminal 12 aa] | 0.728 ± 0.016 | 0.686 ± 0.06 |
| ARTSDELQFTLP [MPT5 C-terminal 12 aa] | 0.7165 ± 0.0027 | 0.6868 ± 0.0057 |
| ARVASQLGQKKK [PRO3 C-terminal 12 aa] | 0.6735 ± 0.0064 | 0.684 ± 0.014 |
| ASPTCTPQNPCV [CAB4 C-terminal 12 aa] | 0.706 ± 0.021 | 0.735 ± 0.062 |
| ASYIQSREICLV [GNT1 C-terminal 12 aa] | 0.6464 ± 0.006 | 0.5859 ± 0.0036 |

| Sequence | protein stability index [1] | protein stability index (genetic background: wild type) |
| --- | --- | --- |
| ATGGKKTTFADE [RPA14 C-terminal 12 aa] | 0.711 ± 0.054 | 0.667 ± 0.036 |
| ATTDQEGDIHLE [PRE10 C-terminal 12 aa] | 0.689 ± 0.026 | 0.678 ± 0.038 |
| ATTNISVLQECV [VRL1 C-terminal 12 aa] | 0.666 ± 0.018 | 0.642 ± 0.011 |
| AWVPPTEDDSDE [DPH5 C-terminal 12 aa] | 0.698 ± 0.018 | 0.665 ± 0.0093 |
| AYLQYYSESPEN [DUG1 C-terminal 12 aa] | 0.707 ± 0.0053 | 0.724 ± 0.051 |
| CFFLRKENGKDE [YLR120W-A C-terminal 12 aa] | 0.709 ± 0.041 | 0.687 ± 0.017 |
| CHLLFGTHKKTL [YBL071C-B C-terminal 12 aa] | 0.7233 ± 0.002 | 0.6921 ± 0.003 |
| CKQWEISNMLKK [CSI1 C-terminal 12 aa] | 0.738 ± 0.023 | 0.664 ± 0.04 |
| CKYPTKDIPIFF [RAD17 C-terminal 12 aa] | 0.727 ± 0.013 | 0.734 ± 0.013 |
| CLSLDFVVPRPK [SHR5 C-terminal 12 aa] | 0.74 ± 0.016 | 0.697 ± 0.048 |
| CMRPANQEIYPL [YLR157W-D C-terminal 12 aa] | 0.704 ± 0.02 | 0.681 ± 0.017 |
| CSGAAGKIYVCD [CDC40 C-terminal 12 aa] | 0.6678 ± 0.005 | 0.723 ± 0.01 |
| CTSCGYKFRTNN [RPA12 C-terminal 12 aa] | 0.7397 ± 0.0049 | 0.2522 ± 0.002 |
| CTSLLKGERKKE [RRT8 C-terminal 12 aa] | 0.6656 ± 0.00077 | 0.685 ± 0.012 |
| DAFEKAIEAVYA [ARG8 C-terminal 12 aa] | 0.546 ± 0.014 | 0.558 ± 0.012 |
| DAFTDPRQYHLT [BUD19 C-terminal 12 aa] | 0.717 ± 0.0052 | 0.69 ± 0.0082 |
| DAHIYNKRSKPD [PHO80 C-terminal 12 aa] | 0.646 ± 0.012 | 0.662 ± 0.04 |
| DDAKDSNNSSLR [WSC2 C-terminal 12 aa] | 0.682 ± 0.011 | 0.724 ± 0.0081 |
| DDAVNCNTSNCL [ZRC1 C-terminal 12 aa] | 0.7026 ± 0.002 | 0.698 ± 0.017 |
| DDEEATAMFKLE [IES1 C-terminal 12 aa] | 0.715 ± 0.0089 | 0.6754 ± 0.0028 |
